Consider 40 sequences from the nanobody polyreactivity screen of Harvey et al. (2022).

The data set can be described thus: yeast display, Sf9 membrane polyspecificity reagent, FACS + sequencing; frameworks hold sequencing errors. Put shortly: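 After 36–48 hours of galactose induction, yeast (Saccharomyces cerevisiae BJ5465) displaying a synthetic nanobody library were stained at 4 °C for 1 hour with 10% biotinylated, detergent-solubilized Sf9 membrane reagent. Streptavidin microbeads enriched the stained cells before FACS sorting into low and high (top ~1%) gates on anti-HA and streptavidin fluorescence. Each clone's polyreactivity label reflects its gate of origin.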
“QVQLVESGGGLVQAGGSLRLSCAASGSTFLSYAMGWYIQAPGKEREFVAAIPSIVGSTYYADSVKGRFTISRDNAKNTVYLQMNSLKPEDTAVYYCATDSYPGLNPDFDYWGQGTQVTVSS”: the “polyreactivity (PSR sort gate)” value is “low polyreactivity”. Under “QVQLVESGGGLVQAGGSLRLSCAASGSTFLSYAMGWYRQAPGKERELVARITSSGGNTYYADSVKGRFTISRDNAKNTVYLQMNSLKPEDTAVYYCAVSLEDQQYIFDYWGQGTQVTVSS” stands “low polyreactivity”. Then “QVQLVESGGGLVQAGGSLRLSCAASGSTFLTNVMGWYRQAPGKEREFVAAITANGGRTYYADSVKGRFTISRDNAKKTVYLKMNSQKPEDTAVYYAVETAWSYNSIYWFDYWGQGTQVTVSS”, with “high polyreactivity”; and “QVQLVESGGGLVQAGGSLRLSCAASGSTFLTYAMGWYRQAPGKERELVASITSTGRTYADSVKGRFTISRDNAKNTVYLQMNSLKPEDTAVYYCNADVTAFRRSFLRKYYSYDSWGQGTQVTVSS”, with “low polyreactivity”; and “QVQLVESGGGLVQAGGSLRLSCAASGSTFLVNAKGWYRQAPGKEWEFVAAITGNAGSTYYADSVKGRFTISRDNEKYTVYLQMNSLKPEDTAVYYCAAALPGYDGDYWGQGTQVTVSS”, with “low polyreactivity”. Then “QVQLVESGGGLVQAGGSLRLSCAASGSTFLVYALGWYRQAHGKEREFVAAISWSGGSTFYADSVKGRFTISRDNAKNTVYLQMNSLKPEDTAVYYCAARQAGYSGRKLYYWGQGTQVTVSS”, with “low polyreactivity”; and “QVQLVESGGGLVQAGGSLRLSCAASGSTFLVYARGWYRQAPGKERELVADITSRGGSTYYADSVKGRFTISRDNAKNTVYLQMNSLKPEDTAVYYCAALKRVVLFDYWGQGSQVTVSS”, with “low polyreactivity”; and “QVQLVESGGGLVQAGGSLRLSCAASGSTFLYNAMGWYRQAPGKERELVATISSGGGSTNYADSVKGRFTISRDNAKNTVYLQMNSLKPEDTAVYYCAVEGYDSYKDDYWGQGTQVTVSS”, with “low polyreactivity”.

“QVQLVESGGGLVQAGGSLRLSCAASGSTFLYNAMRWYRQAPGKEREFVAAISGSGGTTYYADSVKGRFTISRDNAKNTFYLQMNSLKPEDTAVYYCAVSQSWYWYYASDYWGQGTQVTVSS”: the “polyreactivity (PSR sort gate)” value was “low polyreactivity”.

Take “QVQLVESGGGLVQAGGSLRLSCAASGSTFLYYAMGWYRQAPGKERELVAAISWSGGSTYYADSVKGRFTISRDNAKNTVYLQMKSLKPEDTAVYYCAASSPWEQSNDQFYYWGQGTQVTVSS”: the “polyreactivity (PSR sort gate)” value is “low polyreactivity”. Under “QVQLVESGGGLVQAGGSLRLSCAASGSTFLYYAMGWYRQAPGKERELVATITDGGSTNYADSVKGRFTISRDNAKNTVYLQMNSLKPEDTAVYYCATDSYHYSYGYASLPEYDYWGQGTQVTVSS” stands “low polyreactivity”; under “QVQLVESGGGLVQAGGSLRLSCAASGSTFLYYAMGWYRQAPGKERELVAVISWSGVSTYYADSVKGRFTISRDNAKNTVYLQMNSLKPEVTAVYYCNTGNHYIRTYGYWGQGTQVTVSS”, “low polyreactivity”; under “QVQLVESGGGLVQAGGSLRLSCAASGSTFNEYVMGWYRHAPGKERELVAAITGGGGRTYYADSVKGRFTISRDNAKNTVYLQMNSLKPEDTAVYYCAKRYLFVTYWGFFRYDYWGQGTQVTVSS”, “low polyreactivity”. In the case of “QVQLVESGGGLVQAGGSLRLSCAASGSTFNEYVMGWYRQAPGKERELVAAITGGGGRTYYADSVKGRFTISRDNAKITVYLQMNSQKPEDTAFYDCAKRYLYGTYWGFFRYDYWGQGTQVTVSS”, the “polyreactivity (PSR sort gate)” value is listed as “low polyreactivity”. Take “QVQLVESGGGLVQAGGSLRLSCAASGSTFNFYAMGWYRQAPGKEREFVAAITSSGDSTYYADSVKGRFTISRDHAKTTVYLQMNSLKPEDTAVYYCAARLRWRYSYDYWGQGTQVTVSS”: the “polyreactivity (PSR sort gate)” value is “high polyreactivity”. Then “QVQLVESGGGLVQAGGSLRLSCAASGSTFNGNAMGWYRQAPGKERELVARISFDGTSTYYADSVKGRFTISRDNAKNTVYLQMNSLKPEDTAVDYCNVLFPRDHGFPGYGYWGQGTQVTVSS”, with “low polyreactivity”; and “QVQLVESGGGLVQAGGSLRLSCAASGSTFNGYAIGWYRQAPGKERELVAAITWSGDSTYYADSVKGRFTISRDNAKNTVYLQMNSLKPEDTAVYYCAADDVKWDYDYWGQGTQVTVSS”, with “low polyreactivity”; and “QVQLVESGGGLVQAGGSLRLSCAASGSTFNGYAMGWYRQAPGKERELVAAINWTGDSTYYADSVKGRFTISRDNAKNTVYLQMNSLKPEDTAVYYCAAIRRQKGLWDYYYWGQGTQVTVSS”, with “low polyreactivity”.

In the case of “QVQLVESGGGLVQAGGSLRLSCAASGSTFNGYTMGWYRQAPGKERELVAAISKSGGRTYYADSVKGRFTISRDNAKNTVYLQMNSLKPEDTAVYYCAAHFRALGIYYTYDYWGQGTQVTVSS”, the “polyreactivity (PSR sort gate)” value is listed as “high polyreactivity”. Then “QVQLVESGGGLVQAGGSLRLSCAASGSTFNGYTMGWYRQAPGKERELVAAITWSGGRTYYADSVKGRFTISRDNAKNTVYLQMNSLKPEDTAVYYCAAKLRSRYDYWGQGTQVTVSS”, with “high polyreactivity”.

For “QVQLVESGGGLVQAGGSLRLSCAASGSTFNGYVMGWYRQAPGKERELVAAISRSGGSTYYADSVKGRFTISRDNAKNTVYLQMNSLKPEDTAVYYCAVQRKSSKRAFRYGYWGQGTQVTVSS”, the “polyreactivity (PSR sort gate)” value was “high polyreactivity”. Then “QVQLVESGGGLVQAGGSLRLSCAASGSTFNKYTMGWYRQAPGKERELVASISSDGSTNYADSVKGRFTISRDNAKNTVYLQMNSLKPEDTAVYYCAADEGTGQASLSSNLYDYWGQGTQVTVSS”, with “low polyreactivity”; and “QVQLVESGGGLVQAGGSLRLSCAASGSTFNNNAMGWYRQAPGKERELVAAISYTGGSTYYADSVKGRFTISRDIAKYTVYLQMNSLKPEDSAVYYCARRQARKFYYWGQGTQVTVSS”, with “high polyreactivity”.

For “QVQLVESGGGLVQAGGSLRLSCAASGSTFNNYAMGWYSQAPGKERELVAAITRGGGSTHYADSVKGRFTISRDNAKKTVYFQMNCRKPEDTAVYYCAVAGFDRGQYVRYYYWGQGTQVTVSS”, the “polyreactivity (PSR sort gate)” value was “low polyreactivity”. Under “QVQLVESGGGLVQAGGSLRLSCAASGSTFNRTPMGWYRQAPGKERELVAGISAGGRTYYTDSVKGRFTISRDNAKNTVYLLMNSLKPEDTAVYDCGTTSWWRCDLHTYLLTHYDYWGQGSQVTVSS” stands “low polyreactivity”; under “QVQLVESGGGLVQAGGSLRLSCAASGSTFNRYAMGWYRPAPGKDRELVAAISASGGSTYYADSVKGRFRISRDNAKNTVYLQMNSLKPEDTAVYYCATLHYVGQEHDYWGQGTQVTVSS”, “low polyreactivity”. Then “QVQLVESGGGLVQAGGSLRLSCAASGSTFNRYAMGWYRQAPGKERELVAAITSTGGTNYADSVKGRFTISLDNAKNTVYLQMYSLKPEDTAVYYCAKRWLRWRSNYWGQGTQVTVSS”, with “high polyreactivity”. Under “QVQLVESGGGLVQAGGSLRLSCAASGSTFNSYTMGWSRQAPGEERELVAAITWSGGRTYYADSVKGRFTISRDNAKNTVYLQMNSLKPEATAVYYCAKDRVGEMYYWGQGTQVTVSS” stands “low polyreactivity”. As for “QVQLVESGGGLVQAGGSLRLSCAASGSTFNSYVMGWYRQAPGQERELVAAITWSGGRTYYADSVKGRFTISRDNAKNTVYLQMNSLKPEDTAVYYCARKKRRGRDWGYDYWGQGTQVTVSS”, the “polyreactivity (PSR sort gate)” value was “high polyreactivity”. Under “QVQLVESGGGLVQAGGSLRLSCAASGSTFNTNAMAWYRHAPGKERELVAAISWSSTRTYYADSVKGRFTISRDNAKNTVYLQMNSLKPEDTAVYYCAAATYQSRYFQRFDYWGQGTQVTVSS” stands “high polyreactivity”; under “QVQLVESGGGLVQAGGSLRLSCAASGSTFNTNTMGWYRQAPGKERELVAAISQSGTRTYYANSVKGRFTISRDNAKYTVYFQMNSLKPEDTAVYYCSADRQRYTSSSRKGLGYWGQGTQVTVSS”, “high polyreactivity”; under “QVQLVESGGGLVQAGGSLRLSCAASGSTFNVYSMGWYRQAPGKERELVAAIDTGDGSTFYADSVKGRFTISRDNAKNTVYLQMNSLKPEDTAVYYCAAEFWAIVDGDYCGQGTQVTVSS”, “high polyreactivity”. Then “QVQLVESGGGLVQAGGSLRLSCAASGSTFNWYAMGWYRQAPGKERELVASIRISGGSTYYADSVKGRFTISRDNAKNTVYLQMNSLKPEDTAVYYCNAKLFIRWFTYDYWGQGTQVTVSS”, with “low polyreactivity”; and “QVQLVESGGGLVQAGGSLRLSCAASGSTFNYNAMGWYRPAPRKERELVAAITWNSGSTYYADSVKGRFTISRDNAKNTVYLQMNSLKQEDTAVYSCAADFTIPYWDAKFDYWGQGTQVTVSS”, with “low polyreactivity”. Then “QVQLVESGGGLVQAGGSLRLSCAASGSTFNYNAMGWYRQAPGKERELVAAITYSGSSTYYADSVKGRFTISRDNAKNTVYLQMNSLKPEDTAVYYCAKDWYYLRRNYDYWGQGTQVTVSS”, with “high polyreactivity”; and “QVQLVESGGGLVQAGGSLRLSCAASGSTFNYYAMGWYRQAPGKERELVAAISSRSSRTFYADSVKGRFTISRDNEKNTVYLQMNSLKPEDTAVYYCAVKKRAPDGDYWGQGTQVTVSS”, with “high polyreactivity”; and “QVQLVESGGGLVQAGGSLRLSCAASGSTFNYYDMGWYRQAPGKERELVATITSRGRSTYYADSVKGRFTISRDNAKNTVYLQMNSLKPVDTAVYYCAADWRAYIRRAAYSPFDYWGQGTQVTVSS”, with “low polyreactivity”.

Regarding “QVQLVESGGGLVQAGGSLRLSCAASGSTFNYYTMGWYRQEPGKETELVAAISGRVSITYYADSVKGRFTISRDNAKNTVYLQMISLKPEDTAVYYCAAGPGYVRYPRSGVWYVTLYDYWGQGSQVTVSS”, the “polyreactivity (PSR sort gate)” value is on record as “high polyreactivity”. Under “QVQLVESGGGLVQAGGSLRLSCAASGSTFPDYAMGWYRQAPGKERELVAAISGDSDDTYYADSVKGRFTISRDNAKNTVYLQMNSLKPEDTAVYYCAARRGRAVYSVAYDYWGQATQVTVSS” stands “high polyreactivity”. Then “QVQLVESGGGLVQAGGSLRLSCAASGSTFPDYAMGWYRQAPGKERELVAAISRRGVRTYYADSVKGRFTISRDNAKNTVYLQMNSLKPEDTAVYYCAAPSLLSGSDMDYWGQGTQVTVSS”, with “high polyreactivity”.
